According to publication PMC9482650, “Quantitative fragmentomics allow affinity mapping of interactomes” (Nature Communications, 2022):

How the values were obtained:
Assay in all cases: holdup assay
Set-up in all cases: key: below the threshold = too weak to quantify, mostly under pKd 3.1 to 4
APBA1_2, Q02410 = settings: plain residues with an end cap or a label only
NHERF4_2, Q86UT5 = settings: plain residues with an end cap or a label only (N-terminal biotin on a linker: ado-ado)
MAGI2_4, Q86UL8 = settings: plain residues with an end cap or a label only (N-terminal biotin on a linker: ado-ado)
MAGI2_4, Q86UL8, sequence (Q86UL8 772-865): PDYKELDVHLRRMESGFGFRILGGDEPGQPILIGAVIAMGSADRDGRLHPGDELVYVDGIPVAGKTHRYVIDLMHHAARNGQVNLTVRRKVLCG

SCRIB_3, Q14160 = target: SCRIB_3, Q14160
PARD3B_1, Q8TEW8 = target: T1, PARD3B_1, Q8TEW8
T1 sequence (Q8TEW8 196-299, limits assumed, looked up): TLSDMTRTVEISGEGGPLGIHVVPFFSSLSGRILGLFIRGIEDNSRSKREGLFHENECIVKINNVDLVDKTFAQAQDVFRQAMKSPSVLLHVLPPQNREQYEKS

IL16_4, Q14005 = settings: plain residues with an end cap or a label only (N-terminal biotin on a linker: ado-ado)
IL16_4, Q14005, sequence (Q14005 1229-1329): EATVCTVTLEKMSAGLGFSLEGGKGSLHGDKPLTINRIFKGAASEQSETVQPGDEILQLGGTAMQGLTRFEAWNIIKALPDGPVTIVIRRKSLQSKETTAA

PARD3_3, Q8TEW0 = settings: plain residues with an end cap or a label only (N-terminal biotin on a linker: ado-ado)
PARD3_3, Q8TEW0, sequence (Q8TEW0 582-685): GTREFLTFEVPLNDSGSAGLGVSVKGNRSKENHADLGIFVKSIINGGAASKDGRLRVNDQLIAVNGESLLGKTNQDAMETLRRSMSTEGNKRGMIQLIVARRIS

SYNJ2BP, P57105 = target: T2, SYNJ2BP, P57105
T2 sequence (P57105 8-110, limits assumed, looked up): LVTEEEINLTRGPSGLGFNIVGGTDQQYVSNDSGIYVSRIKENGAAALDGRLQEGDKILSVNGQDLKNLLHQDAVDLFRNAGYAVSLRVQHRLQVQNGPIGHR

FRMPD4, Q14CM0 = settings: plain residues with an end cap or a label only (N-terminal biotin on a linker: ado-ado)
FRMPD4, Q14CM0, sequence (Q14CM0 67-160): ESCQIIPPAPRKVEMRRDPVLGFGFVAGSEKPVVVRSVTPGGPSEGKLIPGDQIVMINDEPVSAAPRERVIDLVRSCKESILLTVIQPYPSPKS

APBA2_1, Q99767 = settings: plain residues with an end cap or a label only
APBA2_1, Q99767, sequence (Q99767 565-653): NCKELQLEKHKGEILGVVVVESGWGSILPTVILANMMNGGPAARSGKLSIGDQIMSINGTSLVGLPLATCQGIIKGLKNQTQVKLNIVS

DLG2_3, Q15700 = settings: plain residues with an end cap or a label only (N-terminal biotin on a linker: ado-ado)
DLG1_2, Q12959 = settings: plain residues with an end cap or a label only (N-terminal biotin on a linker: ado-ado)
DLG1_2, Q12959, sequence (Q12959 314-412): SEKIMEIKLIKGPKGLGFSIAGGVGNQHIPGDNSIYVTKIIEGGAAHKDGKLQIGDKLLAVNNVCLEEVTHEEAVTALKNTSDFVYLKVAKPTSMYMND

LIN7B, Q9HAP6 = target: T3, LIN7B, Q9HAP6; settings: plain residues with an end cap or a label only (N-terminal biotin on a linker: ado-ado)
T3 sequence (Q9HAP6 88-185, limits assumed, looked up): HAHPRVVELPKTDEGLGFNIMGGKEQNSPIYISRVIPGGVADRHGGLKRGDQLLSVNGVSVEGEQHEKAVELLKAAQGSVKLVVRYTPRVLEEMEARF

NHERF4_4, Q86UT5 = settings: plain residues with an end cap or a label only (N-terminal biotin on a linker: ado-ado)
NHERF4_4, Q86UT5, sequence (Q86UT5 464-550): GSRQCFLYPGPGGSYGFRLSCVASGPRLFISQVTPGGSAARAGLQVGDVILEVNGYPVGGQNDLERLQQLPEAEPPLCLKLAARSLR

MAGI2_2, Q86UL8 = target: MAGI2_2, Q86UL8
MAGI2_2, Q86UL8, sequence (Q86UL8 410-522): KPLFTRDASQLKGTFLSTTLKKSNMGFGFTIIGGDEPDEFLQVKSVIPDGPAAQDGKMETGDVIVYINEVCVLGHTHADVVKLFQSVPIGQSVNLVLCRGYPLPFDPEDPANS

MPP6, Q9NZW5 = target: T4, MPP6, Q9NZW5; settings: plain residues with an end cap or a label only (N-terminal biotin on a linker: ado-ado)
T4 sequence (Q9NZW5 125-219, limits assumed, looked up): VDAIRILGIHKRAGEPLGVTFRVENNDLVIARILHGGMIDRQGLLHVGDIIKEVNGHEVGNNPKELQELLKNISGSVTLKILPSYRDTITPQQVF

GRASP, Q7Z6J2 = settings: plain residues with an end cap or a label only (N-terminal biotin on a linker: ado-ado)
GRASP, Q7Z6J2, sequence (Q7Z6J2 96-193): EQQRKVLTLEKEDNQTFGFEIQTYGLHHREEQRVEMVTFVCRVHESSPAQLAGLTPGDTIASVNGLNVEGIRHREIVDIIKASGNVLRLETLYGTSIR

NHERF3_1, Q5T2W1 = target: T5, NHERF3_1, Q5T2W1; settings: plain residues with an end cap or a label only (N-terminal biotin on a linker: ado-ado)
T5 sequence (Q5T2W1 4-100, limits assumed, looked up): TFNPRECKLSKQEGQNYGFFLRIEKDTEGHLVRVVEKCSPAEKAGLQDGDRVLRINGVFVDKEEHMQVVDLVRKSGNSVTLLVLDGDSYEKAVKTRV

MAST2, Q6P0Q8 = target: MAST2, Q6P0Q8
PDZD7_3, Q9H5P4 = settings: modified: phosphorylated residue at S732 (position -3 from the C-terminal residue); phosphorylated residue at T733 (position -2 from the C-terminal residue); phosphorylated residue at T734 (position -1 from the C-terminal residue)
PDZD7_3, Q9H5P4, sequence (Q9H5P4 858-953): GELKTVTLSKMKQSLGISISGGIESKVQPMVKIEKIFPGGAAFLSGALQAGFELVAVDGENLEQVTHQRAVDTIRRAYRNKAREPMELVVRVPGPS

MAGI3_2, Q5TCQ9 = settings: modified: O-phospho-L-serine at S732 (position -3 from the C-terminal residue); O-phospho-L-threonine at T734 (position -1 from the C-terminal residue)
MAGI3_2, Q5TCQ9, sequence (Q5TCQ9 398-503): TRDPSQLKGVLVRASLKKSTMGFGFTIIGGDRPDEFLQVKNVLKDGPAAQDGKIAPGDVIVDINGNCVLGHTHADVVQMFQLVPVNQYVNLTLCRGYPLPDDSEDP

HTRA1, Q92743 = settings: modified: phosphorylated residue at T733 (position -2 from the C-terminal residue); phosphorylated residue at T734 (position -1 from the C-terminal residue)
HTRA1, Q92743, sequence (Q92743 365-480): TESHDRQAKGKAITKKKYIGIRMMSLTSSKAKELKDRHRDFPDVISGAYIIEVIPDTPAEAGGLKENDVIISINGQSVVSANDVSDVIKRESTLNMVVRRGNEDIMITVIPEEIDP

SNTB1, Q13884 = settings: modified: O-phospho-L-serine at S732 (position -3 from the C-terminal residue); phosphorylated residue at T734 (position -1 from the C-terminal residue)
SNTB1, Q13884, sequence (Q13884 107-196): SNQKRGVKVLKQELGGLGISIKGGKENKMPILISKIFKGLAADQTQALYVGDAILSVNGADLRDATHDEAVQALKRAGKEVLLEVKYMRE

SNTA1, Q13424 = settings: modified: O-phospho-L-serine at S732 (position -3 from the C-terminal residue); O-phospho-L-threonine at T734 (position -1 from the C-terminal residue)
SNTA1, Q13424, sequence (Q13424 84-171): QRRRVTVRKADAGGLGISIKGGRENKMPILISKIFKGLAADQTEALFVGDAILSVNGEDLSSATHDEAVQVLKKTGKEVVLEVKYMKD

SCRIB_1, Q14160 = settings: modified: O-phospho-L-serine at S732 (position -3 from the C-terminal residue); O-phospho-L-threonine at T734 (position -1 from the C-terminal residue)
SCRIB_1, Q14160, sequence (Q14160 718-814): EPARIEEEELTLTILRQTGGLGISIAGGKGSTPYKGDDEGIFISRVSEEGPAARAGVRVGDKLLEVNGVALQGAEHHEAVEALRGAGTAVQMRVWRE

PTPN3, P26045 = settings: modified: O-phospho-L-serine at S732 (position -3 from the C-terminal residue); O-phospho-L-threonine at T734 (position -1 from the C-terminal residue)
PTPN3, P26045, sequence (P26045 505-587): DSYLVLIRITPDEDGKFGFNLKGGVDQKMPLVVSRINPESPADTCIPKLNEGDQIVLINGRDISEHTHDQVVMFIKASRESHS

SNX27, Q96L92 = settings: modified: phosphorylated residue at S732 (position -3 from the C-terminal residue); phosphorylated residue at T734 (position -1 from the C-terminal residue)
PDZRN4_1, Q6ZMN7 = settings: modified: O-phospho-L-serine at S732 (position -3 from the C-terminal residue); O-phospho-L-threonine at T734 (position -1 from the C-terminal residue)
PDZRN4_1, Q6ZMN7, sequence (Q6ZMN7 213-318): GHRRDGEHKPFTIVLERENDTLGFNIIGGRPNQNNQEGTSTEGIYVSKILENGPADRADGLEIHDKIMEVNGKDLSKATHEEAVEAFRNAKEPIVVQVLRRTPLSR

SNTG2, Q9NY99 = settings: modified: phosphorylated residue at S732 (position -3 from the C-terminal residue); phosphorylated residue at T734 (position -1 from the C-terminal residue)
SNTG2, Q9NY99, sequence (Q9NY99 70-159): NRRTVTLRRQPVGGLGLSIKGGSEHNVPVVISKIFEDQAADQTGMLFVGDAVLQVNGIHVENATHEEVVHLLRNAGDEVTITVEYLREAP

ARHGEF12, Q9NZN5-2 = settings: modified: phosphorylated residue at S732 (position -3 from the C-terminal residue); phosphorylated residue at T734 (position -1 from the C-terminal residue)
ARHGEF12, Q9NZN5-2, sequence (Q9NZN5 other isoform, or with tags, fused parts or gaps): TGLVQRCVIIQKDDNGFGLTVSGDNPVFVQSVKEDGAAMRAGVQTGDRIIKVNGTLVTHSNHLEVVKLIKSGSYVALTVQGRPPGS

AHNAK1, Q09666 = settings: plain residues with an end cap or a label only
AHNAK1, Q09666, sequence (Q09666 2-98): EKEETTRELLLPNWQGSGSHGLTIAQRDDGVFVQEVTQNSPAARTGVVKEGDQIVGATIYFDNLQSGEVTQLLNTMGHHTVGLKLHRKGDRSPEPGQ

APBA1_1, Q02410 = settings: plain residues with an end cap or a label only
APBA1_1, Q02410, sequence (Q02410 other isoform, or with tags, fused parts or gaps): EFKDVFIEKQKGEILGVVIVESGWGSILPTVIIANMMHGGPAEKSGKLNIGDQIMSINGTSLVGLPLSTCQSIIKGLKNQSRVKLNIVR

[1] = plain residues with an end cap or a label only (N-terminal biotin on a linker: ado-ado)
[2] = modified: O-phospho-L-serine at S732 (position -3 from the C-terminal residue), O-phospho-L-threonine at T734 (position -1 from the C-terminal residue)

APBA1_2, Q02410, sequence (Q02410 742-822): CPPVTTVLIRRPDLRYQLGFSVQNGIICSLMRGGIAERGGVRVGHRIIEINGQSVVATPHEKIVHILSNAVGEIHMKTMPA
NHERF4_2, Q86UT5, sequence (Q86UT5 220-308): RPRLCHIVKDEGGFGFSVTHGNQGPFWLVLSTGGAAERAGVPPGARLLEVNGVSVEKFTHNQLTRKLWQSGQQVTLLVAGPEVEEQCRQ

RRSQSRESQC [a stretch of P03149, P03149]
pKd (APBA1_2, Q02410): below the threshold

NTALVESEDL [PALLS, Q8WX93]
pKd (NHERF4_2, Q86UT5): 3.48 | pKd (MAGI2_4, Q86UL8): 3.59 | pKd (SCRIB_3, Q14160; [1]): 3.73 | pKd (PARD3B_1, Q8TEW8; [1]): 3.58 | pKd (IL16_4, Q14005): 3.57 | pKd (PARD3_3, Q8TEW0): 3.61 | pKd (SYNJ2BP, P57105; [1]): 3.49 | pKd (FRMPD4, Q14CM0): 3.65

RRSQSRESQC [a stretch of P69706, P69706]
pKd (APBA2_1, Q99767): below the threshold

VKQYADVEGF [HNRNPK, P61978]
pKd (DLG2_3, Q15700): 3.55 | pKd (IL16_4, Q14005): 3.51 | pKd (DLG1_2, Q12959): 3.72 | pKd (LIN7B, Q9HAP6): 3.61 | pKd (NHERF4_4, Q86UT5): 3.72 | pKd (MAGI2_2, Q86UL8; [1]): 3.56 | pKd (MPP6, Q9NZW5): 3.7 | pKd (GRASP, Q7Z6J2): 3.76 | pKd (NHERF3_1, Q5T2W1): 3.53 | pKd (MAST2, Q6P0Q8; [1]): 3.87

RVRKLPSTTL [a stretch of Q15418, Q15418]
pKd (PDZD7_3, Q9H5P4): below the threshold | pKd (MAGI3_2, Q5TCQ9): below the threshold | pKd (SCRIB_3, Q14160; [2]): below the threshold | pKd (PARD3B_1, Q8TEW8; modified: phosphorylated residue at S732 (position -3 from the C-terminal residue), phosphorylated residue at T733 (position -2 from the C-terminal residue), phosphorylated residue at T734 (position -1 from the C-terminal residue)): below the threshold | pKd (HTRA1, Q92743): below the threshold | pKd (SNTB1, Q13884): below the threshold | pKd (SNTA1, Q13424): below the threshold | pKd (SCRIB_1, Q14160): below the threshold | pKd (PTPN3, P26045): below the threshold | pKd (SNX27, Q96L92): below the threshold | pKd (MAGI2_2, Q86UL8; modified: O-phospho-L-threonine at T734 (position -1 from the C-terminal residue), phosphorylated residue at S732 (position -3 from the C-terminal residue)): below the threshold | pKd (PDZRN4_1, Q6ZMN7): below the threshold | pKd (SNTG2, Q9NY99): below the threshold | pKd (ARHGEF12, Q9NZN5-2): below the threshold | pKd (MAST2, Q6P0Q8; [2]): below the threshold | pKd (SYNJ2BP, P57105; [2]): below the threshold

RRSQSRESQC [a stretch of P03146, P03146]
pKd (AHNAK1, Q09666): below the threshold

RRSQSRESQC [a stretch of P03148, P03148]
pKd (APBA1_1, Q02410): below the threshold
